Experimental data as given in PMC3568255 (Protein expression and purification, 2012).
*: point of attachment. Biotin = O=C1N[C@H]2[C@H](CS[C@H]2CCCCC(=O)*)N1

B1: B-AM(19–52)NH2[C21A] (peptide)
peptide: Biotin-GTATVQKLAHQIYQFTDKDKDNVAPRSKISPQGY-NH2
SMILES: CC[C@H](C)[C@H](NC(=O)[C@H](CCC(N)=O)NC(=O)[C@H](Cc1c[nH]cn1)NC(=O)[C@H](C)NC(=O)[C@H](CC(C)C)NC(=O)[C@H](CCCCN)NC(=O)[C@H](CCC(N)=O)NC(=O)[C@@H](NC(=O)[C@@H](NC(=O)[C@H](C)NC(=O)[C@@H](NC(=O)CNC(=O)CCCC[C@@H]1SC[C@@H]2NC(=O)N[C@@H]21)[C@@H](C)O)[C@@H](C)O)C(C)C)C(=O)N[C@@H](Cc1ccc(O)cc1)C(=O)N[C@@H](CCC(N)=O)C(=O)N[C@@H](Cc1ccccc1)C(=O)N[C@H](C(=O)N[C@@H](CC(=O)O)C(=O)N[C@@H](CCCCN)C(=O)N[C@@H](CC(=O)O)C(=O)N[C@@H](CCCCN)C(=O)N[C@@H](CC(=O)O)C(=O)N[C@@H](CC(N)=O)C(=O)N[C@H](C(=O)N[C@@H](C)C(=O)N1CCC[C@H]1C(=O)N[C@@H](CCCNC(=N)N)C(=O)N[C@@H](CO)C(=O)N[C@@H](CCCCN)C(=O)N[C@H](C(=O)N[C@@H](CO)C(=O)N1CCC[C@H]1C(=O)N[C@@H](CCC(N)=O)C(=O)NCC(=O)N[C@@H](Cc1ccc(O)cc1)C(N)=O)[C@@H](C)CC)C(C)C)[C@@H](C)O
B2: RAMP2 ECD-H6 (RAMP2.36-140-H6), isolated extracellular domain of receptor activity modifying protein 2 (domain or fragment, human, UniProt O60895 36-140, looked up)
chain: NPHEALAQPLPTTGTPGSEGGTVKNYETAVQFCWNHYKDQMDPIEKDWCDWAMISRPYSTLRDCLEHFAELFDLGFPNPLAERIIFETHQIHFANCSLVQPTFSD

Assays:
[1] = molecular target: MBP-CLR ECD-H6:RAMP2 ECD-H6 complex (recombinant AM receptor ECD complex) (human, UniProt Q16602 29-144; O60895 36-140); assay: AlphaScreen or HTRF
SEC = molecular target: the molecule itself; assay: SEC

Sequence of MBP-CLR ECD-H6:RAMP2 ECD-H6 complex (recombinant AM receptor ECD complex) (Q16602 29-144, one chain of several): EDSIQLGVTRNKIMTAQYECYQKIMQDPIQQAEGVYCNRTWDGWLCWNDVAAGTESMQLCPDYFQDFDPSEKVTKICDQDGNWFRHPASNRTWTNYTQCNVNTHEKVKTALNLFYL

Binder	binding result [1]	stoichiometry N (SEC)
B1	binds	–
B2	–	3
